Paper PMC8972253

Target: HER2 receptor (human (endogenous in SKBR3)) (UniProt P04626)
Assay: BLI

Kd: 1 nM
Substance: Thiomab Tras-LC-V205C
